According to patent US20080233097A1, “Phosphorylation Site Of Mitogen-Activated Protein Kinases, Modified Proteins And Applications” (UNIVERSIDAD AUTONOMA DE MADRID, priority 2005, published 2008):
Values joined by “and” are separate entries in the source; they are usually repeats but may differ in a detail not shown here. Identical values can stand only once.

Assays:
3T3-L1 cells [1] = conditions: prior demonstration of p38 involvement; cited from earlier work
3T3-L1 cells [2] = assay: adipocyte differentiation of 3T3-L1 (Oil Red staining, adipocyte count); format: cell-based
Description: 3T3L1 lines stably transfected with pCDNA3-GRK2 and pCDNA3-GRK2K220R were made. GRK2 (anti-GRK2) expression controls obtained in cell lines, compared to 3T3L1 levels, are included. The cells were subjected to a standard differentiation treatment and on day 15 of the latter, the cells were fixed with formalin and stained with Oil Red, a lipophilic coloring which binds to the fats accumulated by the adipocytes. The cells with adipocytic phenotype (in red) were counted under microscope in a total of 25 fields. Representative photographs of two independent experiments are shown in duplicate. A photo of the 3T3L1 cells, free of stimulation with insulin during the differentiation process (control), is also included. The graph reflects the adipocyte count (±SEM) in these experiments.
The cell culture was carried out with 10% DMEM medium of NCS serum. However, the entire differentiation process which is described below must be performed in depleted AXC serum (ion exchange resin) by means of successive adsorptions of fetal calf serum on an anion exchange resin and on active carbon. AXC serum was provided by the kitchen service of the Instituto of Investigaciones Biomédicas (Biomedical Research Institute). The cells are grown until their confluence and are plated (5×10^5 in P-100) in DMEM-10% AXC medium, supplemented with 4 μM of biotin (Sigma). The following day, the medium is replaced with fresh medium. The cells are grown another three days, until confluence is reached again, that day is called day “0”. On day 0 of differentiation, the cells are cultured in a medium containing: 0.5 μM dexamethasone (Sigma), 0.5 mM 3-isobutyl-1-methylxanthine (IMBX, of Sigma) and 1 μM insulin (Sigma) and in which they will remain for another three days. […] From day 6 to day 15, the adipogenesis was analyzed by staining with Oil Red, a red coloring of lipophilic constitution which binds to the drops of fat accumulated by the adipocytes in their cytoplasm. […] The cells are counted in a total of 25 fields per each experimental plate.

GRK2 = target: T1, GRK2 (Bos taurus, UniProt P21146); assay: GRK2 kinase activity in vitro (casein substrate); format: biochemical; conditions: 0.5 μM
T1 construct: made in house; host or cells: Sf9 cells (baculovirus)
T1 sequence (P21146 1-689): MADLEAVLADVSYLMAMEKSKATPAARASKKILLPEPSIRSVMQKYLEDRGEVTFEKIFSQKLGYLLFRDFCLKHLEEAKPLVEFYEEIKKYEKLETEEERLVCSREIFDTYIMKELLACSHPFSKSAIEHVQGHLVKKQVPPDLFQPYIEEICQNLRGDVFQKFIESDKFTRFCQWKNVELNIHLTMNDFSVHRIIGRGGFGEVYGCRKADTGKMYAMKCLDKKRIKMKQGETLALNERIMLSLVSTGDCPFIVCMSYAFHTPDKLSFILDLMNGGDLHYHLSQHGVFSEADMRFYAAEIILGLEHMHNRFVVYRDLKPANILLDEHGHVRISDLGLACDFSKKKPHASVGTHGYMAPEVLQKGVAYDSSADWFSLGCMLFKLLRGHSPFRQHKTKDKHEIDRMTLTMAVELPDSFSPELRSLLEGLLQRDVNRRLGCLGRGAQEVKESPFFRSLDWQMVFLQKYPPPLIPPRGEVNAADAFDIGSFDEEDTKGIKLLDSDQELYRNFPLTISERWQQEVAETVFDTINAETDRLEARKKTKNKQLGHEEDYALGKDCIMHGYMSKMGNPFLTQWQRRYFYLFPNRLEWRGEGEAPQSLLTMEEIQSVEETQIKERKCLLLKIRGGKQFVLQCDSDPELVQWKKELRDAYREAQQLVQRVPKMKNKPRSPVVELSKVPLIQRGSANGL

p38 (GST-p38) = target: T2, p38 (GST-p38) (Mus musculus, UniProt P47811); assay: p38 phosphorylation by GRK2 in vitro (kinetic characterization); format: biochemical
T2 construct: with whole p38α in the same conditions as described in section A; made in house; host or cells: E. coli (GST-p38); Sf9 cells with baculovirus (GRK2)
Protocol: Normally, the phosphorylation reactions are left to take place for 30 minutes at 30° C. In the case of two-dimensional electrophoresis or of the samples intended for proteomic sequencing, the reaction extends to 1 or 2 hours.
The Michaelis-Menten behaviour of the kinases was assumed for calculating the kinetic constants of the enzymatic reactions. The graphs were made with the “Kaleidagraph” program, provided with an algorithm capable of deducing the kinetic parameters: Michaelis-Menten constant (Km) and maximum speed (Smax=So (nmol of PO4^3-incorporated. mg of enzyme^−1minute^−1)

[3] = tested on: phosducin and the protein similar to phosducin (PhD and PhLP); conditions: cited from earlier work
Flag-p38α = target: T3, Flag-p38α (Mus musculus, UniProt P47811); assay: […] peptide phosphorylation by immunoprecipitated Flag-p38; format: biochemical; conditions: HEK 293 cells transfected with Flag-p38α, MKK6CAM and 1 or 2 μg pCDNA3-GRK2
T3 construct: expressed in transfected cells; host or cells: HEK 293 cells, co-transfected with pCDNA3-MKK6CAM and with or without pCDNA3-GRK2
Protocol: FIG. 4A: HEK 293 cells, seeded in p60, were transiently transfected with 0.5 μg of pCDNA3-Flag-p38α, 0.5 μg of pCDNA3-MKK6CAM(or 0.5 μg of empty pCDNA3 in the control, CTRL), and with 1 or 2 μg of the pCDNA3-GRK2 (+) vector, carrying out each point in duplicate. The controls were carried out in a parallel way, substituting the pCDNA3-GRK2 μg with pCEFL-EGFP (−). The total DNA amount was completed with empty pCDNA3. After 48 hours, the cells were lysed, lysate aliquots were taken and Flag-p38 was immunoprecipitated from them. […] FIG. 4B: The immunoprecipitates were washed three times with 15 ml of M2 buffer and two times with 15 ml of phosphorylation buffer without ATP (15 mM NaF, 25 mM Hepes pH 7.5 and 10 mM magnesium acetate). In the last washing step, the agarose-immune complexes were resuspended in 1 ml of buffer and 10% of each point was separated to control the immunoprecipitation of Flag-p38 (panel inserted in the graph of section B). Kinase-assays were carried out with immunoprecipitated Flag-p38, using [sequence] peptide (initially provided by CalbioChem and subsequently synthesized by the Servicio de Química de Proteínas (Protein Chemistry Service) of the CBMSO) as a substrate. […] ATP and 2 mM of the peptide substrate. […] They were left to dry, were abundantly washed with 75 mM phosphoric acid and the radioactivity incorporated by the adsorbed peptide was quantified by Cerenkov. […]

β-tubulins = conditions: depending on the subtypes; cited from earlier work
Flag-p38 = assay: GRK2 overexpression: p38 activation by MKK6CAM in HEK 293 cells; format: cell-based, human; conditions: increasing doses of pCDNA3-GRK2 (0 to 1 μg)
Protocol: FIG. 3A: HEK 293 cells, normally seeded in multiwell plates with 6 or 12 wells (M6 or M12), were transiently transfected with pCDNA3-Flag-p38α, pCDNA3-MKK6CAM, and with increasing amounts of the pCDNA3-GRK2 vector. In this experiment, M6 plates were used and the DNA amounts introduced were: 100 ng of Flag-p38, 100 ng of MKK6CAM, and 0 to 1 μg of GRK2. In all points, the total amount of DNA was completed with pCEFL-EGFP and with empty pCDNA3 instead of pCDNA3-MKK6CAM, in the case of the control (CTRL). After 48 hours, the cells were harvested by lysing them in M2 buffer. […] The p38 activation state was evaluated with anti-phospho-p38, of Cell Signaling, and after giving off the antibodies of the first immunodetection, it was detected with total anti-p38, of the same company. […] The Flag-p38 activation state was determined in the same way as in A. Furthermore, the correct MKK6CAM expression was assured with the anti-MKK6/SKK3 antibody of Upstate Biotechnology. […]
The HE 293 cells, generally subjected to starvation (medium without serum) of a variable duration: 2 hours in the case of p38 and all night in the case of ERK, were stimulated and, after processing the lysate cells, the immunodetection of the phosphoproteins was carried out with the phospho-specific antibodies of the activation segments of both proteins. […] The quantification of the bands was carried out in a laser densitometer. […]

sinucleins = conditions: depending on the subtypes; cited from earlier work

T2 sequence (P47811 whole entry): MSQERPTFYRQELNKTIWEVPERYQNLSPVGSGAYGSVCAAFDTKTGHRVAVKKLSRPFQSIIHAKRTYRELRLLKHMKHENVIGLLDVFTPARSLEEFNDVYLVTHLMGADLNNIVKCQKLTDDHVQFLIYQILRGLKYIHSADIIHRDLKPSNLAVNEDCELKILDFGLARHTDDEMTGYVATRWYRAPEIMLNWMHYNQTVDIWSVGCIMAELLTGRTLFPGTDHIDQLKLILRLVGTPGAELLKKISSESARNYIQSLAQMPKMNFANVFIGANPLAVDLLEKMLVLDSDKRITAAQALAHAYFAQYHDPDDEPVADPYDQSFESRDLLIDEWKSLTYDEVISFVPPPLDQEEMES
T3 sequence (P47811 whole entry): as above

Molecule: C[S+]([O-])c1ccc(-c2nc(-c3ccncc3)c(-c3ccc(F)cc3)[nH]2)cc1 (stereo not shown) [SB203580]
- effect on differentiation into adipocytes (3T3-L1 cells [1]): blocked
- effect on adipogenesis (3T3-L1 cells [2]; 10 μM, insulin-induced differentiation): reverses the entire adipogenesis
- effect on kinase activity of GRK2 (GRK2): does not affect the kinase activity of GRK2

Molecule: GRK2: G protein-coupled receptor kinase 2; recombinant, purified by the Baculovirus system; phosphorylates Thr123 of p38
- maximum speed (Smax) (p38 (GST-p38); GRK2 25 nM, p38 12.5 to 400 nM, 15 minutes): 0.9 nmol of PO4^3-incorporated per mg GRK2^−1 minute^−1
- Km (p38 (GST-p38); GRK2 25 nM, p38 12.5 to 400 nM, 15 minutes, 30° C., read-out: Michaelis-Menten constant (Km)): 0.0796 µM and 0.08 µM
- stoichiometry of phosphorylation (p38 (GST-p38); at least three quantifications by Cerenkov): 0.4-0.8 mol Pi/mol p38
- average time for reaching 50% of the maximum phosphorylation (p38 (GST-p38); time course 0 to 90 minutes): 15 min
- Km [3]: 0.04 to 0.1 µM
- acquisition of the adipocytic morphology mediated by insulin (3T3-L1 cells [2]; 3T3L1 lines stably transfected, day 15): inhibits the acquisition of the adipocytic morphology mediated by insulin
- catalytic activity of immunoprecipitated p38 on APR peptide (Flag-p38α): dimmed
- Km (β-tubulins): 1 to 2 µM
- p38 activation dependent on MKK6CAM (Flag-p38): decreased more as more amounts of GRK2 were expressed
- Km (sinucleins): 1 to 2 µM
